# Measurements published in US20260217835A1 (published 2026).
# Assays:
# [1] = biological target: T1, Fc fragment SEQ ID NO: 594 (coexpressed with the L235R/G236R heavy chains) (Homo sapiens (Human), UniProt P01857 104-328 = IgG part); experiment: SEC peak area ratio; full-length heavy chain, light chain and Fc fragment coexpressed in Expi293F, affinity purified
# T1 construct: Fc fragment without CH3 interface modification
# [2] = biological target: the molecule itself; experiment: as above
# [3] = biological target: T2, Fc fragment SEQ ID NO: 595 (coexpressed with the L234A/L235A heavy chains) (Homo sapiens (Human), UniProt P01857 104-328 = IgG part); experiment: as above
# T2 construct: Fc fragment without CH3 interface modification
# [4] = biological target: the molecule itself; experiment: SEC area ratio after coexpression of heavy chain, light chain and Fc fragment
# [5] = biological target: T3, Fc fragment SEQ ID NO: 597 (coexpressed with the M428L/N434S heavy chains) (Homo sapiens (Human), UniProt P01857 104-328 = IgG part); experiment: SEC peak area ratio; full-length heavy chain, light chain and Fc fragment coexpressed in Expi293F, affinity purified
# T3 construct: Fc fragment without CH3 interface modification
Heteromultimer (%) [1] [%],Heteromultimer (%) [3] [%],Heteromultimer (%) [5] [%],Binder,Homo full-length heavy chain (%) [2] [%],Homo full-length heavy chain (%) [4] [%]
0,,,"Full-length heavy chain with L235R/G236R (suppress FcγR binding) and E356K/K392D/D399K/K439E (SEQ ID NO: 137), with light chain SEQ ID NO: 61 (antibody, human IgG1, kappa, also called Sample No. 317 full-length heavy chain) heavy: QVQLQESGPGLVRPSQTLSLTCTVSGYSITSDHAWSWVRQPPGRGLEWIGYISYSGITTYNPSLKSRVTMLRDTSKNQFSLRLSSVTAADTAVYYCARSLARTTAMDYWGQGSLVTVSSASTKGPSVFPLAPSSKSTSGGTAALGCLVKDYFPEPVTVSWNSGALTSGVHTFPAVLQSSGLYSLSSVVTVPSSSLGTQTYICNVNHKPSNTKVDKRVEPKSCDKTHTCPPCPAPELRRGPSVFLFPPKPKDTLMISRTPEVTCVVVDVSHEDPEVKFNWYVDGVEVHNAKTKPREEQYNSTYRVVSVLTVLHQDWLNGKEYKCKVSNKALPAPIEKTISKAKGQPREPQVYTLPPSRKEMTKNQVSLTCLVKGFYPSDIAVEWESNGQPENNYDTTPPVLKSDGSFFLYSKLTVDKSRWQQGNVFSCSVMHEALHNHYTQESLSLSP light: not shown",62.2,
,0,,"Full-length heavy chain with L234A/L235A (suppress FcγR binding) and T394W/F405A (SEQ ID NO: 139), with light chain SEQ ID NO: 61 (antibody, human IgG1, kappa, L234A L235A) heavy: QVQLQESGPGLVRPSQTLSLTCTVSGYSITSDHAWSWVRQPPGRGLEWIGYISYSGITTYNPSLKSRVTMLRDTSKNQFSLRLSSVTAADTAVYYCARSLARTTAMDYWGQGSLVTVSSASTKGPSVFPLAPSSKSTSGGTAALGCLVKDYFPEPVTVSWNSGALTSGVHTFPAVLQSSGLYSLSSVVTVPSSSLGTQTYICNVNHKPSNTKVDKRVEPKSCDKTHTCPPCPAPEAAGGPSVFLFPPKPKDTLMISRTPEVTCVVVDVSHEDPEVKFNWYVDGVEVHNAKTKPREEQYNSTYRVVSVLTVLHQDWLNGKEYKCKVSNKALPAPIEKTISKAKGQPREPQVYTLPPSREEMTKNQVSLTCLVKGFYPSDIAVEWESNGQPENNYKTWPPVLDSDGSFALYSKLTVDKSRWQQGNVFSCSVMHEALHNHYTQKSLSLSP light: not shown",66.9,
,0,,"Full-length heavy chain with L234A/L235A (suppress FcγR binding) and E356K/K392D/D399K/K439E (SEQ ID NO: 142), with light chain SEQ ID NO: 61 (antibody, human IgG1, kappa, L234A L235A) heavy: QVQLQESGPGLVRPSQTLSLTCTVSGYSITSDHAWSWVRQPPGRGLEWIGYISYSGITTYNPSLKSRVTMLRDTSKNQFSLRLSSVTAADTAVYYCARSLARTTAMDYWGQGSLVTVSSASTKGPSVFPLAPSSKSTSGGTAALGCLVKDYFPEPVTVSWNSGALTSGVHTFPAVLQSSGLYSLSSVVTVPSSSLGTQTYICNVNHKPSNTKVDKRVEPKSCDKTHTCPPCPAPEAAGGPSVFLFPPKPKDTLMISRTPEVTCVVVDVSHEDPEVKFNWYVDGVEVHNAKTKPREEQYNSTYRVVSVLTVLHQDWLNGKEYKCKVSNKALPAPIEKTISKAKGQPREPQVYTLPPSRKEMTKNQVSLTCLVKGFYPSDIAVEWESNGQPENNYDTTPPVLKSDGSFFLYSKLTVDKSRWQQGNVFSCSVMHEALHNHYTQESLSLSP light: not shown",67.9,
3.4,,,"Full-length heavy chain with L235R/G236R (suppress FcγR binding) and T366W/L368A/Y407V (SEQ ID NO: 135), with light chain SEQ ID NO: 61 (antibody, human IgG1, kappa) heavy: QVQLQESGPGLVRPSQTLSLTCTVSGYSITSDHAWSWVRQPPGRGLEWIGYISYSGITTYNPSLKSRVTMLRDTSKNQFSLRLSSVTAADTAVYYCARSLARTTAMDYWGQGSLVTVSSASTKGPSVFPLAPSSKSTSGGTAALGCLVKDYFPEPVTVSWNSGALTSGVHTFPAVLQSSGLYSLSSVVTVPSSSLGTQTYICNVNHKPSNTKVDKRVEPKSCDKTHTCPPCPAPELRRGPSVFLFPPKPKDTLMISRTPEVTCVVVDVSHEDPEVKFNWYVDGVEVHNAKTKPREEQYNSTYRVVSVLTVLHQDWLNGKEYKCKVSNKALPAPIEKTISKAKGQPREPQVYTLPPSREEMTKNQVSLWCAVKGFYPSDIAVEWESNGQPENNYKTTPPVLDSDGSFFLVSKLTVDKSRWQQGNVFSCSVMHEALHNHYTQKSLSLSP light: not shown",58.1,
0,,,"Full-length heavy chain with L235R/G236R (suppress FcγR binding) and Q347R/K360E/D399V/F405T/K409W (SEQ ID NO: 136), with light chain SEQ ID NO: 61 (antibody, human IgG1, kappa) heavy: QVQLQESGPGLVRPSQTLSLTCTVSGYSITSDHAWSWVRQPPGRGLEWIGYISYSGITTYNPSLKSRVTMLRDTSKNQFSLRLSSVTAADTAVYYCARSLARTTAMDYWGQGSLVTVSSASTKGPSVFPLAPSSKSTSGGTAALGCLVKDYFPEPVTVSWNSGALTSGVHTFPAVLQSSGLYSLSSVVTVPSSSLGTQTYICNVNHKPSNTKVDKRVEPKSCDKTHTCPPCPAPELRRGPSVFLFPPKPKDTLMISRTPEVTCVVVDVSHEDPEVKFNWYVDGVEVHNAKTKPREEQYNSTYRVVSVLTVLHQDWLNGKEYKCKVSNKALPAPIEKTISKAKGQPREPRVYTLPPSREEMTENQVSLTCLVKGFYPSDIAVEWESNGQPENNYKTTPPVLVSDGSFTLYSWLTVDKSRWQQGNVFSCSVMHEALHNHYTQKSLSLSP light: not shown",60.2,
0,,,"Full-length heavy chain with L235R/G236R (suppress FcγR binding) and T394W/F405A (SEQ ID NO: 134), with light chain SEQ ID NO: 61 (antibody, human IgG1, kappa) heavy: QVQLQESGPGLVRPSQTLSLTCTVSGYSITSDHAWSWVRQPPGRGLEWIGYISYSGITTYNPSLKSRVTMLRDTSKNQFSLRLSSVTAADTAVYYCARSLARTTAMDYWGQGSLVTVSSASTKGPSVFPLAPSSKSTSGGTAALGCLVKDYFPEPVTVSWNSGALTSGVHTFPAVLQSSGLYSLSSVVTVPSSSLGTQTYICNVNHKPSNTKVDKRVEPKSCDKTHTCPPCPAPELRRGPSVFLFPPKPKDTLMISRTPEVTCVVVDVSHEDPEVKFNWYVDGVEVHNAKTKPREEQYNSTYRVVSVLTVLHQDWLNGKEYKCKVSNKALPAPIEKTISKAKGQPREPQVYTLPPSREEMTKNQVSLTCLVKGFYPSDIAVEWESNGQPENNYKTWPPVLDSDGSFALYSKLTVDKSRWQQGNVFSCSVMHEALHNHYTQKSLSLSP light: not shown",64.1,
,0,,"Full-length heavy chain with L234A/L235A (suppress FcγR binding) and Q347R/K360E/D399V/F405T/K409W (SEQ ID NO: 141), with light chain SEQ ID NO: 61 (antibody, human IgG1, kappa, L234A L235A) heavy: QVQLQESGPGLVRPSQTLSLTCTVSGYSITSDHAWSWVRQPPGRGLEWIGYISYSGITTYNPSLKSRVTMLRDTSKNQFSLRLSSVTAADTAVYYCARSLARTTAMDYWGQGSLVTVSSASTKGPSVFPLAPSSKSTSGGTAALGCLVKDYFPEPVTVSWNSGALTSGVHTFPAVLQSSGLYSLSSVVTVPSSSLGTQTYICNVNHKPSNTKVDKRVEPKSCDKTHTCPPCPAPEAAGGPSVFLFPPKPKDTLMISRTPEVTCVVVDVSHEDPEVKFNWYVDGVEVHNAKTKPREEQYNSTYRVVSVLTVLHQDWLNGKEYKCKVSNKALPAPIEKTISKAKGQPREPRVYTLPPSREEMTENQVSLTCLVKGFYPSDIAVEWESNGQPENNYKTTPPVLVSDGSFTLYSWLTVDKSRWQQGNVFSCSVMHEALHNHYTQKSLSLSP light: not shown",65.3,
,0,,"Full-length heavy chain with L234A/L235A (suppress FcγR binding) and T366W/L368A/Y407V (SEQ ID NO: 140), with light chain SEQ ID NO: 61 (antibody, human IgG1, kappa, L234A L235A, also called Sample No. 320 full-length heavy chain) heavy: QVQLQESGPGLVRPSQTLSLTCTVSGYSITSDHAWSWVRQPPGRGLEWIGYISYSGITTYNPSLKSRVTMLRDTSKNQFSLRLSSVTAADTAVYYCARSLARTTAMDYWGQGSLVTVSSASTKGPSVFPLAPSSKSTSGGTAALGCLVKDYFPEPVTVSWNSGALTSGVHTFPAVLQSSGLYSLSSVVTVPSSSLGTQTYICNVNHKPSNTKVDKRVEPKSCDKTHTCPPCPAPEAAGGPSVFLFPPKPKDTLMISRTPEVTCVVVDVSHEDPEVKFNWYVDGVEVHNAKTKPREEQYNSTYRVVSVLTVLHQDWLNGKEYKCKVSNKALPAPIEKTISKAKGQPREPQVYTLPPSREEMTKNQVSLWCAVKGFYPSDIAVEWESNGQPENNYKTTPPVLDSDGSFFLVSKLTVDKSRWQQGNVFSCSVMHEALHNHYTQKSLSLSP light: not shown",67.5,
,,,"Full-length IgG2 heavy chain SEQ ID NO: 104 (E356K/K392D/D399K/K439E) with light chain SEQ ID NO: 61 (antibody, also called full-length heavy chain of Sample No. 252) heavy: QVQLQESGPGLVRPSQTLSLTCTVSGYSITSDHAWSWVRQPPGRGLEWIGYISYSGITTYNPSLKSRVTMLRDTSKNQFSLRLSSVTAADTAVYYCARSLARTTAMDYWGQGSLVTVSSASTKGPSVFPLAPCSRSTSESTAALGCLVKDYFPEPVTVSWNSGALTSGVHTFPAVLQSSGLYSLSSVVTVPSSNFGTQTYTCNVDHKPSNTKVDKTVERKCCVECPPCPAPPVAGPSVFLFPPKPKDTLMISRTPEVTCVVVDVSHEDPEVQFNWYVDGVEVHNAKTKPREEQFNSTFRVVSVLTVVHQDWLNGKEYKCKVSNKGLPAPIEKTISKTKGQPREPQVYTLPPSRKEMTKNQVSLTCLVKGFYPSDIAVEWESNGQPENNYDTTPPMLKSDGSFFLYSKLTVDKSRWQQGNVFSCSVMHEALHNHYTQESLSLSP light: not shown",,82.7
,,0,"Full-length heavy chain with M428L/N434S (enhance FcRn binding) and Q347R/K360E/D399V/F405T/K409W (SEQ ID NO: 151), with light chain SEQ ID NO: 61 (antibody, human IgG1, kappa) heavy: QVQLQESGPGLVRPSQTLSLTCTVSGYSITSDHAWSWVRQPPGRGLEWIGYISYSGITTYNPSLKSRVTMLRDTSKNQFSLRLSSVTAADTAVYYCARSLARTTAMDYWGQGSLVTVSSASTKGPSVFPLAPSSKSTSGGTAALGCLVKDYFPEPVTVSWNSGALTSGVHTFPAVLQSSGLYSLSSVVTVPSSSLGTQTYICNVNHKPSNTKVDKRVEPKSCDKTHTCPPCPAPELLGGPSVFLFPPKPKDTLMISRTPEVTCVVVDVSHEDPEVKFNWYVDGVEVHNAKTKPREEQYNSTYRVVSVLTVLHQDWLNGKEYKCKVSNKALPAPIEKTISKAKGQPREPRVYTLPPSREEMTENQVSLTCLVKGFYPSDIAVEWESNGQPENNYKTTPPVLVSDGSFTLYSWLTVDKSRWQQGNVFSCSVLHEALHSHYTQKSLSLSP light: not shown",66.9,
,,0,"Full-length heavy chain with M428L/N434S (enhance FcRn binding) and T366W/L368A/Y407V (SEQ ID NO: 150), with light chain SEQ ID NO: 61 (antibody, human IgG1, kappa, also called Sample No. 330 full-length heavy chain) heavy: QVQLQESGPGLVRPSQTLSLTCTVSGYSITSDHAWSWVRQPPGRGLEWIGYISYSGITTYNPSLKSRVTMLRDTSKNQFSLRLSSVTAADTAVYYCARSLARTTAMDYWGQGSLVTVSSASTKGPSVFPLAPSSKSTSGGTAALGCLVKDYFPEPVTVSWNSGALTSGVHTFPAVLQSSGLYSLSSVVTVPSSSLGTQTYICNVNHKPSNTKVDKRVEPKSCDKTHTCPPCPAPELLGGPSVFLFPPKPKDTLMISRTPEVTCVVVDVSHEDPEVKFNWYVDGVEVHNAKTKPREEQYNSTYRVVSVLTVLHQDWLNGKEYKCKVSNKALPAPIEKTISKAKGQPREPQVYTLPPSREEMTKNQVSLWCAVKGFYPSDIAVEWESNGQPENNYKTTPPVLDSDGSFFLVSKLTVDKSRWQQGNVFSCSVLHEALHSHYTQKSLSLSP light: not shown",54.8,
